Results reported in article PMC11744834, “Allelic variation in an expansin, MdEXP-A1, contributes to flesh firmness at harvest in apples”.

Target: T1, MdNAC1 (Malus domestica? (apple), UniProt D9ZJ87 1-280)
T1 sequence: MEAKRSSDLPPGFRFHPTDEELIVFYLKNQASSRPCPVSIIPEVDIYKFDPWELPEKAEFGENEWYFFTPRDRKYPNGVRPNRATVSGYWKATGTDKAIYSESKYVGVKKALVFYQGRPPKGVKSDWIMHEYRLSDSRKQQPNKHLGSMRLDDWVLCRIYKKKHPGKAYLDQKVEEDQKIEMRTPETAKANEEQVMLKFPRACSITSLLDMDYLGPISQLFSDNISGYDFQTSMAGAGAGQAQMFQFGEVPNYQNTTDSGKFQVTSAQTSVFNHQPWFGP
Experiment: EMSA; Chemiluminescent EMSA Kit (GS009, Beyotime); cold competitor 50x; buffer, salt, pH and temperature not stated
Conditions: protein: recombinant; tags: GST (pGEX-6p-1); chain copies: 2; label: biotin; blunt

B1: MdEXP-A1-P1 binding probe (dsDNA)
DNA 1: TACATGCAAAATAATTTACCTACGTAATAAATAATAAATATTGTT
DNA 2: AACAATATTTATTATTTATTACGTAGGTAAATTATTTTGCATGTA
B1: binds.

B2: MdEXP-A1-P2 binding probe (dsDNA)
DNA 1: TAACAACAAAATGTGCCTAACGTATACATGCAAAATAATTTACCT
DNA 2: AGGTAAATTATTTTGCATGTATACGTTAGGCACATTTTGTTGTTA
B2: binds.
